Experimental data reported in PMC12533913.

What was measured:
Experiment in all cases: SPR
[1] = target: Influenza A virus A/WSN/1933 (H1N1) particles, purified (Influenza A virus A/WSN/1933 (H1N1)) (UniProt P03470)
[2] = target: Influenza A H1N1 (A/Puerto Rico/8/34/Mount Sinai) Matrix protein 1 / M1 Protein (His Tag) (Influenza A virus A/Puerto Rico/8/34/Mount Sinai (H1N1)) (UniProt P03485)
[3] = target: Influenza NA protein (recombinant, bought) (Influenza A virus (strain not stated)) (UniProt P03470)

UniProt P03485, sequence (P03485 whole entry): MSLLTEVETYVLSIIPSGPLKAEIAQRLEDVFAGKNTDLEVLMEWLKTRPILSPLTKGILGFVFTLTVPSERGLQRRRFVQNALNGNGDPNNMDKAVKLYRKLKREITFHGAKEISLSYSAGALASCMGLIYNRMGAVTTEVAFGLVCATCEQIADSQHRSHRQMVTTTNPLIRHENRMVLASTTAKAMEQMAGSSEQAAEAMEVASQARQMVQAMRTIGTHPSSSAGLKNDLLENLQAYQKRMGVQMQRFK

TfR1 protein (recombinant, bought from Sino Biological) (from UniProt P02786 1-760) (receptor)
Kd [1]: 34.6 nM | Kd [2]: 75.9 nM | Kd [3]: 42.4 nM
